Assay [1] addresses HLA-A*1101 (purified HLA class I molecule) (human). The experiment in a line: inhibition of 125I probe peptide binding to purified HLA; ratio to standard peptide.
The target of assay [2] is T1, HLA-A*0301 (purified HLA class I molecule) (human).
T1 construct: also called A3
Nature of the assay: inhibition of 125I probe peptide binding to purified HLA; ratio to standard peptide; minus sign not explained.

Assay [3] addresses T2, HLA-A*1101 (human).
T2 construct: The construct is not described
Nature of the assay: competition with 125I-labelled standard peptide for purified HLA, gel filtration. On the technique in general: SEC sorts molecules by how far they enter the pores of the column.

Assay [4] concerns the target T3, HLA-A*0301 (human).
T3 construct: also called A3
The description is as above.

For the next assay, the target named is T4, HLA-DRB1*0101 (human).
T4 construct: also called DR1
The experiment in a line: competition with 125I probe peptide, purified HLA.

Assay [5] addresses T5, HLA-A*3301 (purified HLA class I molecule) (human).
T5 construct: Purified MHC molecule
Nature of the assay: competition vs 125I standard peptide, purified HLA.

For assay [6], the target named is T6, HLA-A*1101 (purified HLA class I molecule) (human).
T6 construct: Purified MHC molecule
The experiment in a line: competition vs 125I standard peptide, purified HLA.

In assay [7] the target is T7, HLA-A*6801 (purified HLA class I molecule) (human).
T7 construct: Purified MHC molecule
The experiment in a line: competition vs 125I standard peptide, purified HLA.

For assay [8], the target named is HLA-A*0301 (purified HLA class I molecule) (human). Nature of the assay: competition vs 125I standard peptide, purified HLA.
In assay [9] the target is T8, HLA-A*3101 (purified HLA class I molecule) (human).
T8 construct: Purified MHC molecule
The experiment in a line: competition vs 125I standard peptide, purified HLA.

The target in assay [10] is T9, HLA-A*0301 (human).
T9 construct: also called HLA-A3
The experiment in a line: inhibition of 125I-labelled standard peptide 941.12 binding to purified HLA-A*0301, gel filtration.

The next assay has as its target HLA-A*3301 (human). The experiment in a line: inhibition of 125I-labelled standard peptide binding to purified HLA, gel filtration.
The next assay addresses HLA-A*6801 (human). The description is as above.
A further assay has as its target HLA-A*3101 (human). The description is as above.
Assay [11] addresses HLA-A*1101 (human). Described as above.
For assay [12], the target named is HLA-A*0301 (human). Described as above.

As a reminder, the IC50 is the midpoint of a concentration-inhibition curve. Low readings indicate higher potency, high ones lower potency.

In the case of GAMPNQAQMR (also called Her2/neu.704 (10-mer)) [HER2/neu peptide, position 704, 10 amino acids], the relative binding ratio is 0.0041 ratio (IC50 standard / IC50 test) in [1] and -0.0002 ratio (IC50 standard / IC50 test) in assay [2].

B1: HER2/neu peptide, position 888, 9 amino acids (peptide)
peptide: WMALESILR
notes: Synthetic peptide; also called Her2/neu.888 (9-mer)
B1: the relative binding ratio with HLA-A*1101 [3] and in the assay with HLA-A*0301 [4] was -0.0002 ratio (IC50 of standard peptide / IC50 of test peptide) each time.

In the assay with HLA-DRB1*0101, GTDMKLRLPASPETH [Her2/neu.28] displayed an IC50 of 5 µM.

B2: HER2/neu peptide, position 83, 10 amino acids (peptide)
peptide: YVLIAHNQVR
notes: Synthetic peptide; also called Her2/neu.83 (10-mer)
In the case of B2, the relative binding ratio is 0.0013 ratio (IC50 of standard peptide / IC50 of test peptide) with HLA-A*1101 [3] and 0.0043 ratio (IC50 of standard peptide / IC50 of test peptide) with HLA-A*0301 [4].

As for HTVPWDQLFR (also called Her2/neu.478) [HER2/neu peptide, position 478, 10 amino acids], the relative binding ratio in assay [5] is 0.33 ratio (IC50 standard/IC50 test); in assay [6], 0.072 ratio (IC50 standard/IC50 test); in [7], 2 ratio (IC50 standard/IC50 test); in assay [8], 0.0035 ratio (IC50 standard/IC50 test); in [9] it was 0.96 ratio (IC50 standard/IC50 test).

B3: HER2/neu peptide, position 959, 10 amino acids (peptide)
peptide: WMIDSECRPR
notes: Synthetic peptide; also called Her2/neu.959 (10-mer)
Take B3: the relative binding ratio was 0.0002 ratio (IC50 of standard peptide / IC50 of test peptide) with HLA-A*1101 [3] and -0.0002 ratio (IC50 of standard peptide / IC50 of test peptide) with HLA-A*0301 [4].

As for KVPIKWMALESILRR [Her2/neu.883], in the assay with HLA-DRB1*0101, the IC50 came to 0.0023 µM.

As to GVVFGILIK [HER2/neu peptide, position 668, 9 amino acids], the relative binding ratio is 0.0025 ratio (IC50 standard/IC50 test) in assay [5]; 0.089 ratio (IC50 standard/IC50 test) in [6]; 0.0011 ratio (IC50 standard/IC50 test) in assay [7]; 0.0047 ratio (IC50 standard/IC50 test) in assay [8]; 0.0019 ratio (IC50 standard/IC50 test) in [9].

For the molecule ILIKRRQQK [HER2/neu peptide, position 673, 9 amino acids], the relative binding ratio was 0.0064 ratio (IC50 standard/IC50 test) in assay [5]; 0.0097 ratio (IC50 standard/IC50 test) in assay [6]; 0.0001 ratio (IC50 standard/IC50 test) in assay [7]; 0.38 ratio (IC50 standard/IC50 test) in assay [8]; 0.076 ratio (IC50 standard/IC50 test) in assay [9].

Take QALLHTANR [HER2/neu peptide, position 491, 9 amino acids]: the “relative binding ratio (IC50 of standard peptide / IC50 of test peptide)” value in the assay with HLA-A*0301 [10] was 0.0046 ratio.

Regarding QVCTGTDMK (Synthetic A3 supermotif peptide), the relative binding ratio is 0.0006 ratio (IC50 of standard peptide / IC50 of test peptide) with HLA-A*3301; 0.011 ratio (IC50 of standard peptide / IC50 of test peptide) in the assay with HLA-A*6801; 0.0002 ratio (IC50 of standard peptide / IC50 of test peptide) in the assay with HLA-A*3101; 0.052 ratio (IC50 of standard peptide / IC50 of test peptide) in the assay with HLA-A*1101 [11]; 0.0007 ratio (IC50 of standard peptide / IC50 of test peptide) with HLA-A*0301 [12].

B4: HER2/neu peptide, position 739, 9 amino acids (peptide)
peptide: WIPDGENVK
notes: Synthetic peptide; also called Her2/neu.739 (9-mer)
Turning to B4, the relative binding ratio with HLA-A*1101 [3] is 0.0001 ratio (IC50 of standard peptide / IC50 of test peptide); with HLA-A*0301 [4] it was 0.0002 ratio (IC50 of standard peptide / IC50 of test peptide).

For the molecule DMKLRLPASPETHLD [Her2/neu.30], the IC50 with HLA-DRB1*0101 was 5 µM.

On to PTHDPSPLQR (H was used here) [HER2/neu peptide, position 1102, 10 amino acids], for which the “relative binding ratio (IC50 of standard peptide / IC50 of test peptide)” value with HLA-A*0301 [10] was 0.0003 ratio.

Consider RILKETELRK (Synthetic A3 supermotif peptide) [HER2/neu peptide, position 713, 10 amino acids], for which the relative binding ratio with HLA-A*3301 was 0.0013 ratio (IC50 of standard peptide / IC50 of test peptide); with HLA-A*6801, 0.0002 ratio (IC50 of standard peptide / IC50 of test peptide); with HLA-A*3101 it was 0.0055 ratio (IC50 of standard peptide / IC50 of test peptide); in the assay with HLA-A*1101 [11], 0.11 ratio (IC50 of standard peptide / IC50 of test peptide); in the assay with HLA-A*0301 [12], 0.057 ratio (IC50 of standard peptide / IC50 of test peptide).

Regarding PLTCSPQPEY [HER2/neu peptide, position 1130, 10 amino acids], the “relative binding ratio (IC50 of standard peptide / IC50 of test peptide)” value in the assay with HLA-A*0301 [10] amounted to 0.0002 ratio.

For QVCTGTDMK, the “relative binding ratio (IC50 of standard peptide / IC50 of test peptide)” value with HLA-A*0301 [10] stood at 0.0007 ratio.

For TIDVYMIMVK (Synthetic A3 supermotif peptide) [HER2/neu peptide, position 948, 10 amino acids], the relative binding ratio with HLA-A*3301 is 0.012 ratio (IC50 of standard peptide / IC50 of test peptide); in the assay with HLA-A*6801, 0.025 ratio (IC50 of standard peptide / IC50 of test peptide); with HLA-A*3101, 0.0018 ratio (IC50 of standard peptide / IC50 of test peptide); with HLA-A*1101 [11], 0.12 ratio (IC50 of standard peptide / IC50 of test peptide); in the assay with HLA-A*0301 [12], 0.013 ratio (IC50 of standard peptide / IC50 of test peptide).

For the molecule PLQRLRIVR [HER2/neu peptide, position 95, 9 amino acids], the “relative binding ratio (IC50 of standard peptide / IC50 of test peptide)” value with HLA-A*0301 [10] worked out at 0.0002 ratio.

(Values after US20040018971A1 (published 2004).)
